Laboratory results reported in patent publication US20150315260A1 (Sanofi, published 2015).
Like-named read-outs stand apart in the source and are kept apart here. Starred links: 1 amine or outer side, 2 acyl side, 3 side chain; linkers in the order of their positions; H or OH if unused. Non-standard residues stand in square brackets, D forms with d. Groups on a side chain read outwards from the residue. No end group written: not given here. *: point of attachment. γGlu = O=C(O)[C@H](CCC(=O)[*:2])N[*:1]; Stearoyl = CCCCCCCCCCCCCCCCCC(=O)*; Palmitoyl = CCCCCCCCCCCCCCCC(=O)*; AEEA = NCCOCCOCC(=O)O; Aib = CC(C)(N)C(=O)O

Assays:
Test in all cases: cell-based or functional assay
human GLP-1 receptor [1] = target: T1, human GLP-1 receptor (human, UniProt P43220 24-463)
human glucagon receptor [2] = target: T2, human glucagon receptor (human, UniProt P47871 26-477)
T2 sequence (P47871 26-477): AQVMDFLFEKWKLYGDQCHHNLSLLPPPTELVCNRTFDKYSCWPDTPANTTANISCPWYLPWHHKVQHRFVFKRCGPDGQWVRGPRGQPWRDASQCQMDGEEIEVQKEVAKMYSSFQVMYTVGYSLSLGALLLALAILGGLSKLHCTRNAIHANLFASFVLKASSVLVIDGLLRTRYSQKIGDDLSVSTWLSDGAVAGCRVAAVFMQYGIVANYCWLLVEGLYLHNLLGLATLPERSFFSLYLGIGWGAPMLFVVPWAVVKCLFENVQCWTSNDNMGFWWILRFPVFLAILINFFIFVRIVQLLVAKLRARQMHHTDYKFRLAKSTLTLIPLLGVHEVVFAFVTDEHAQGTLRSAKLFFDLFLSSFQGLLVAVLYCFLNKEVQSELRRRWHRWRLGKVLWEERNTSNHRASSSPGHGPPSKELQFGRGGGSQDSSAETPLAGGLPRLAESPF

human GIP receptor [3] = target: T3, human GIP receptor (human, UniProt P48546 22-466)
T3 sequence (looked up): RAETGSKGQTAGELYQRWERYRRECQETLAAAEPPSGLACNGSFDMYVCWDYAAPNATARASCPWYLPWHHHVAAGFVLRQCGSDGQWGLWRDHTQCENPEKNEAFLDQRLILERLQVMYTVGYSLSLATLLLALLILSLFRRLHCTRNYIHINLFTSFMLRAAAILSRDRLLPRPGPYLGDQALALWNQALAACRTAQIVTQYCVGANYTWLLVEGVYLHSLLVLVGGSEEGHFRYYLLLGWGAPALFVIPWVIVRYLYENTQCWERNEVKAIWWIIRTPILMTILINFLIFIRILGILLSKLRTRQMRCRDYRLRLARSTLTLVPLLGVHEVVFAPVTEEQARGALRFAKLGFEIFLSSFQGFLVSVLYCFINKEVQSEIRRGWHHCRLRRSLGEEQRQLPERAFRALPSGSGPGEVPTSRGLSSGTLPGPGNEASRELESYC

human GLP-1 receptor [4] = target: T1, human GLP-1 receptor; remark: listed apart in the source
human glucagon receptor [5] = target: T2, human glucagon receptor; remark: listed apart in the source
human GIP receptor [6] = target: T3, human GIP receptor; remark: listed apart in the source

B1: exendin-4 derivative SEQ ID NO: 23 (comparison compound, non-functionalized Lys in position 14) (peptide)
peptide: H[Aib]QGTFTSDLSKQKDEQRAKLFIEWL[Aib]AGGPSSGAPPPS-NH2
modifications: N-terminus assumed
SMILES: CC[C@H](C)[C@H](NC(=O)[C@H](Cc1ccccc1)NC(=O)[C@H](CC(C)C)NC(=O)[C@H](CCCCN)NC(=O)[C@H](C)NC(=O)[C@H](CCCNC(=N)N)NC(=O)[C@H](CCC(N)=O)NC(=O)[C@H](CCC(=O)O)NC(=O)[C@H](CC(=O)O)NC(=O)[C@H](CCCCN)NC(=O)[C@H](CCC(N)=O)NC(=O)[C@H](CCCCN)NC(=O)[C@H](CO)NC(=O)[C@H](CC(C)C)NC(=O)[C@H](CC(=O)O)NC(=O)[C@H](CO)NC(=O)[C@@H](NC(=O)[C@H](Cc1ccccc1)NC(=O)[C@@H](NC(=O)CNC(=O)[C@H](CCC(N)=O)NC(=O)C(C)(C)NC(=O)[C@@H](N)Cc1c[nH]cn1)[C@@H](C)O)[C@@H](C)O)C(=O)N[C@@H](CCC(=O)O)C(=O)N[C@@H](Cc1c[nH]c2ccccc12)C(=O)N[C@@H](CC(C)C)C(=O)NC(C)(C)C(=O)N[C@@H](C)C(=O)NCC(=O)NCC(=O)N1CCC[C@H]1C(=O)N[C@@H](CO)C(=O)N[C@@H](CO)C(=O)NCC(=O)N[C@@H](C)C(=O)N1CCC[C@H]1C(=O)N1CCC[C@H]1C(=O)N1CCC[C@H]1C(=O)N[C@@H](CO)C(N)=O
Human GLP-1 receptor [1]
  EC50 hGLP-1R (cAMP formation): 0.0525 nM
Human glucagon receptor [2]
  EC50 hGlucagon-R (cAMP formation): 42.9 nM
Human GIP receptor [3]
  EC50 hGIP-1 (cAMP formation, GIP receptor): 177 nM

B2: exendin-4 derivative SEQ ID NO: 6 (peptide)
peptide: H[Aib]QGTFTSDLSKQK([γGlu-Stearoyl])DEQRAKLFIEWL[Aib]A[dA]GPSSGAPPPS-NH2
modifications: N-terminus assumed
SMILES: CCCCCCCCCCCCCCCCCC(=O)N[C@@H](CCC(=O)NCCCC[C@H](NC(=O)[C@H](CCC(N)=O)NC(=O)[C@H](CCCCN)NC(=O)[C@H](CO)NC(=O)[C@H](CC(C)C)NC(=O)[C@H](CC(=O)O)NC(=O)[C@H](CO)NC(=O)[C@@H](NC(=O)[C@H](Cc1ccccc1)NC(=O)[C@@H](NC(=O)CNC(=O)[C@H](CCC(N)=O)NC(=O)C(C)(C)NC(=O)[C@@H](N)Cc1c[nH]cn1)[C@@H](C)O)[C@@H](C)O)C(=O)N[C@@H](CC(=O)O)C(=O)N[C@@H](CCC(=O)O)C(=O)N[C@@H](CCC(N)=O)C(=O)N[C@@H](CCCNC(=N)N)C(=O)N[C@@H](C)C(=O)N[C@@H](CCCCN)C(=O)N[C@@H](CC(C)C)C(=O)N[C@@H](Cc1ccccc1)C(=O)N[C@H](C(=O)N[C@@H](CCC(=O)O)C(=O)N[C@@H](Cc1c[nH]c2ccccc12)C(=O)N[C@@H](CC(C)C)C(=O)NC(C)(C)C(=O)N[C@@H](C)C(=O)N[C@H](C)C(=O)NCC(=O)N1CCC[C@H]1C(=O)N[C@@H](CO)C(=O)N[C@@H](CO)C(=O)NCC(=O)N[C@@H](C)C(=O)N1CCC[C@H]1C(=O)N1CCC[C@H]1C(=O)N1CCC[C@H]1C(=O)N[C@@H](CO)C(N)=O)[C@@H](C)CC)C(=O)O
Human GLP-1 receptor [4]
  EC50 hGLP-1R (cAMP formation): 0.0141 nM
Human glucagon receptor [5]
  EC50 hGlucagon-R (cAMP formation): 0.136 nM
Human GIP receptor [6]
  EC50 hGIP-R (cAMP formation): 2.76 nM

B3: exendin-4 derivative SEQ ID NO: 24 (comparison compound, Leu in position 14) (peptide)
peptide: H[Aib]QGTFTSDLSKQLDEQRAKLFIEWL[Aib]AGGPSSGAPPPS-NH2
modifications: N-terminus assumed
SMILES: CC[C@H](C)[C@H](NC(=O)[C@H](Cc1ccccc1)NC(=O)[C@H](CC(C)C)NC(=O)[C@H](CCCCN)NC(=O)[C@H](C)NC(=O)[C@H](CCCNC(=N)N)NC(=O)[C@H](CCC(N)=O)NC(=O)[C@H](CCC(=O)O)NC(=O)[C@H](CC(=O)O)NC(=O)[C@H](CC(C)C)NC(=O)[C@H](CCC(N)=O)NC(=O)[C@H](CCCCN)NC(=O)[C@H](CO)NC(=O)[C@H](CC(C)C)NC(=O)[C@H](CC(=O)O)NC(=O)[C@H](CO)NC(=O)[C@@H](NC(=O)[C@H](Cc1ccccc1)NC(=O)[C@@H](NC(=O)CNC(=O)[C@H](CCC(N)=O)NC(=O)C(C)(C)NC(=O)[C@@H](N)Cc1c[nH]cn1)[C@@H](C)O)[C@@H](C)O)C(=O)N[C@@H](CCC(=O)O)C(=O)N[C@@H](Cc1c[nH]c2ccccc12)C(=O)N[C@@H](CC(C)C)C(=O)NC(C)(C)C(=O)N[C@@H](C)C(=O)NCC(=O)NCC(=O)N1CCC[C@H]1C(=O)N[C@@H](CO)C(=O)N[C@@H](CO)C(=O)NCC(=O)N[C@@H](C)C(=O)N1CCC[C@H]1C(=O)N1CCC[C@H]1C(=O)N1CCC[C@H]1C(=O)N[C@@H](CO)C(N)=O
Human GLP-1 receptor [1]
  EC50 hGLP-1R (cAMP formation): 0.008 nM
Human glucagon receptor [2]
  EC50 hGlucagon-R (cAMP formation): 3.09 nM
Human GIP receptor [3]
  EC50 hGIP-1 (cAMP formation, GIP receptor): 114 nM

B4: exendin-4 derivative SEQ ID NO: 18 (peptide)
peptide: H[Aib]QGTFTSDLSKQK([AEEA-AEEA-AEEA-Stearoyl])DEQRAKLFIEWL[Aib]AGGPSSGAPPPS-NH2
modifications: N-terminus assumed
SMILES: CCCCCCCCCCCCCCCCCC(=O)NCCOCCOCC(=O)NCCOCCOCC(=O)NCCOCCOCC(=O)NCCCC[C@H](NC(=O)[C@H](CCC(N)=O)NC(=O)[C@H](CCCCN)NC(=O)[C@H](CO)NC(=O)[C@H](CC(C)C)NC(=O)[C@H](CC(=O)O)NC(=O)[C@H](CO)NC(=O)[C@@H](NC(=O)[C@H](Cc1ccccc1)NC(=O)[C@@H](NC(=O)CNC(=O)[C@H](CCC(N)=O)NC(=O)C(C)(C)NC(=O)[C@@H](N)Cc1c[nH]cn1)[C@@H](C)O)[C@@H](C)O)C(=O)N[C@@H](CC(=O)O)C(=O)N[C@@H](CCC(=O)O)C(=O)N[C@@H](CCC(N)=O)C(=O)N[C@@H](CCCNC(=N)N)C(=O)N[C@@H](C)C(=O)N[C@@H](CCCCN)C(=O)N[C@@H](CC(C)C)C(=O)N[C@@H](Cc1ccccc1)C(=O)N[C@H](C(=O)N[C@@H](CCC(=O)O)C(=O)N[C@@H](Cc1c[nH]c2ccccc12)C(=O)N[C@@H](CC(C)C)C(=O)NC(C)(C)C(=O)N[C@@H](C)C(=O)NCC(=O)NCC(=O)N1CCC[C@H]1C(=O)N[C@@H](CO)C(=O)N[C@@H](CO)C(=O)NCC(=O)N[C@@H](C)C(=O)N1CCC[C@H]1C(=O)N1CCC[C@H]1C(=O)N1CCC[C@H]1C(=O)N[C@@H](CO)C(N)=O)[C@@H](C)CC
Human GLP-1 receptor [4]
  EC50 hGLP-1R (cAMP formation): 0.0083 nM
Human glucagon receptor [5]
  EC50 hGlucagon-R (cAMP formation): 0.0086 nM
Human GIP receptor [6]
  EC50 hGIP-R (cAMP formation): 2.16 nM

B5: exendin-4 derivative SEQ ID NO: 7 (peptide)
peptide: H[Aib]QGTFTSDLSKQK([γGlu-γGlu-Palmitoyl])DEQRAKLFIEWL[Aib]A[dA]GPSSGAPPPS-NH2
modifications: N-terminus assumed
SMILES: CCCCCCCCCCCCCCCC(=O)N[C@@H](CCC(=O)N[C@@H](CCC(=O)NCCCC[C@H](NC(=O)[C@H](CCC(N)=O)NC(=O)[C@H](CCCCN)NC(=O)[C@H](CO)NC(=O)[C@H](CC(C)C)NC(=O)[C@H](CC(=O)O)NC(=O)[C@H](CO)NC(=O)[C@@H](NC(=O)[C@H](Cc1ccccc1)NC(=O)[C@@H](NC(=O)CNC(=O)[C@H](CCC(N)=O)NC(=O)C(C)(C)NC(=O)[C@@H](N)Cc1c[nH]cn1)[C@@H](C)O)[C@@H](C)O)C(=O)N[C@@H](CC(=O)O)C(=O)N[C@@H](CCC(=O)O)C(=O)N[C@@H](CCC(N)=O)C(=O)N[C@@H](CCCNC(=N)N)C(=O)N[C@@H](C)C(=O)N[C@@H](CCCCN)C(=O)N[C@@H](CC(C)C)C(=O)N[C@@H](Cc1ccccc1)C(=O)N[C@H](C(=O)N[C@@H](CCC(=O)O)C(=O)N[C@@H](Cc1c[nH]c2ccccc12)C(=O)N[C@@H](CC(C)C)C(=O)NC(C)(C)C(=O)N[C@@H](C)C(=O)N[C@H](C)C(=O)NCC(=O)N1CCC[C@H]1C(=O)N[C@@H](CO)C(=O)N[C@@H](CO)C(=O)NCC(=O)N[C@@H](C)C(=O)N1CCC[C@H]1C(=O)N1CCC[C@H]1C(=O)N1CCC[C@H]1C(=O)N[C@@H](CO)C(N)=O)[C@@H](C)CC)C(=O)O)C(=O)O
Human GLP-1 receptor [4]
  EC50 hGLP-1R (cAMP formation): 0.0034 nM
Human glucagon receptor [5]
  EC50 hGlucagon-R (cAMP formation): 0.101 nM
Human GIP receptor [6]
  EC50 hGIP-R (cAMP formation): 7.62 nM
